From patent publication US20250163186A1 (PHYLAXIS BIOSCIENCE, published 2025)

Target: T1, human IgE (human, UniProt P01854 1-428)
T1 construct: written under the same molecule; also called IgE (Abcam ab65866); soluble IgE
Test: ELISA, clone lysate on IgE-coated plate
From the text: Each amino acid in CDR1 (SEQ ID NO:3), CDR2 (SEQ ID NO:68), and CDR3 (SEQ ID NO:74) was randomly replaced such that the 20 natural amino acids would likely all have been sampled at every position. The expression vector for the VHH containing the mutagenized CDRs was then transfected into E. coli, and at least 96 clones were randomly chosen for each position mutated in each CDR. This gives likely coverage of all potential mutations at each position since the probability to get any given amino acid at that position is 5%. […] The heat maps represent the relative binding for each clone determined by the range of OD values from the ELISA background to WT CDR binding (FIGS. 16A-16C). Site numbering for each residue tested is indicated by the inset tables in FIGS. 16A-16C.

T1 sequence (P01854 other isoform, or with tags, fused parts or gaps limits assumed, form in doubt): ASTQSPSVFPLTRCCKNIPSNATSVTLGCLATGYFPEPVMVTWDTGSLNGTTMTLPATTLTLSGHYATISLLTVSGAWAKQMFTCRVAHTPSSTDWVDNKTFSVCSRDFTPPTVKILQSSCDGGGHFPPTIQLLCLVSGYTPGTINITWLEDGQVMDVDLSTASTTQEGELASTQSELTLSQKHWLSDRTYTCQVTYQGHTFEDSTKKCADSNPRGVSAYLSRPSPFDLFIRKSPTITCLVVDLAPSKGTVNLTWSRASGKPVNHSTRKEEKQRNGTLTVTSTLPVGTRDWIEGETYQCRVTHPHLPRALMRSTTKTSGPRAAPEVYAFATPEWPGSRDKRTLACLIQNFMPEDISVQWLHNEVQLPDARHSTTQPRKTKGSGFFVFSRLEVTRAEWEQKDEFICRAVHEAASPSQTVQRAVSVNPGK

Row | Binder | Confirm OD450 Duplicate1 | Confirm OD450 Duplicate2 | R1 Screening OD450
1 | 5C3 (VHH, also called hzB10v40 VHH, CDR1 site 5 S to D) VHH: EVQLLESGGGEVQPGGSLRLSCVASGLTFDSYNMGWLRQAPGKEREFVGLSGSSSTSTYYAESVKGRFTISRDNAKNTVYLQMTSLRAEDTAVYYCAARRLLSTYWSDRSWDFWGQGTLVTVEP | 0.546 | 0.556 | 0.897
2 | 6A9 (VHH, also called hzB10v40 VHH, CDR1 site 6 S to E) VHH: EVQLLESGGGEVQPGGSLRLSCVASGLTFSEYNMGWLRQAPGKEREFVGLSGSSSTSTYYAESVKGRFTISRDNAKNTVYLQMTSLRAEDTAVYYCAARRLLSTYWSDRSWDFWGQGTLVTVEP | 0.475 | 0.488 | 0.852
3 | 5H11 (VHH, also called hzB10v40 VHH, CDR1 site 5 S to R) VHH: EVQLLESGGGEVQPGGSLRLSCVASGLTFRSYNMGWLRQAPGKEREFVGLSGSSSTSTYYAESVKGRFTISRDNAKNTVYLQMTSLRAEDTAVYYCAARRLLSTYWSDRSWDFWGQGTLVTVEP | 0.545 | 0.55 | 0.893
4 | 6C2 (VHH, also called hzB10v40 VHH, CDR1 site 6 S to Q) VHH: EVQLLESGGGEVQPGGSLRLSCVASGLTFSQYNMGWLRQAPGKEREFVGLSGSSSTSTYYAESVKGRFTISRDNAKNTVYLQMTSLRAEDTAVYYCAARRLLSTYWSDRSWDFWGQGTLVTVEP | 0.534 | 0.526 | 0.826
5 | 6E11 (VHH, also called hzB10v40 VHH, CDR1 site 6 S to T) VHH: EVQLLESGGGEVQPGGSLRLSCVASGLTFSTYNMGWLRQAPGKEREFVGLSGSSSTSTYYAESVKGRFTISRDNAKNTVYLQMTSLRAEDTAVYYCAARRLLSTYWSDRSWDFWGQGTLVTVEP | 0.454 | 0.468 | 0.817

Other lines, results leading:

Row | Confirm OD450 Duplicate1 | Confirm OD450 Duplicate2 | R1 Screening OD450 | Binder
6 | 0.52 | 0.559 | 0.922 | 8F11 (VHH, also called hzB10v40 VHH, CDR1 site 8 N to T) VHH: EVQLLESGGGEVQPGGSLRLSCVASGLTFSSYTMGWLRQAPGKEREFVGLSGSSSTSTYYAESVKGRFTISRDNAKNTVYLQMTSLRAEDTAVYYCAARRLLSTYWSDRSWDFWGQGTLVTVEP
7 | 0.417 | 0.402 | 0.885 | 6F11 (VHH, also called hzB10v40 VHH, CDR1 site 6 S to R) VHH: EVQLLESGGGEVQPGGSLRLSCVASGLTFSRYNMGWLRQAPGKEREFVGLSGSSSTSTYYAESVKGRFTISRDNAKNTVYLQMTSLRAEDTAVYYCAARRLLSTYWSDRSWDFWGQGTLVTVEP
8 | 0.534 | 0.552 | 0.917 | 8G10 (VHH, also called hzB10v40 VHH, CDR1 site 8 N to S) VHH: EVQLLESGGGEVQPGGSLRLSCVASGLTFSSYSMGWLRQAPGKEREFVGLSGSSSTSTYYAESVKGRFTISRDNAKNTVYLQMTSLRAEDTAVYYCAARRLLSTYWSDRSWDFWGQGTLVTVEP
9 | 0.487 | 0.53 | 0.908 | 6H1 (VHH, also called hzB10v40 VHH, CDR1 site 6 S to P) VHH: EVQLLESGGGEVQPGGSLRLSCVASGLTFSPYNMGWLRQAPGKEREFVGLSGSSSTSTYYAESVKGRFTISRDNAKNTVYLQMTSLRAEDTAVYYCAARRLLSTYWSDRSWDFWGQGTLVTVEP
10 | 0.571 | 0.568 | 0.97 | 8H11 (VHH, also called hzB10v40 VHH, CDR1 site 8 N to R) VHH: EVQLLESGGGEVQPGGSLRLSCVASGLTFSSYRMGWLRQAPGKEREFVGLSGSSSTSTYYAESVKGRFTISRDNAKNTVYLQMTSLRAEDTAVYYCAARRLLSTYWSDRSWDFWGQGTLVTVEP
11 | 0.556 | 0.512 | 0.875 | 6G9 (VHH, also called hzB10v40 VHH, CDR1 site 6 S to A) VHH: EVQLLESGGGEVQPGGSLRLSCVASGLTFSAYNMGWLRQAPGKEREFVGLSGSSSTSTYYAESVKGRFTISRDNAKNTVYLQMTSLRAEDTAVYYCAARRLLSTYWSDRSWDFWGQGTLVTVEP
